From the RNAGym collection of RNA variant scans (doi:10.7554/elife.80360)

B1: Hairpin Ribozyme (parent)
chain: GUCCUCUUUCACGUGCGCGUGAAAGAGAGAAGUGAACCAGAGAAACACACGUUGUGGUAUAUUACCUGGUA

Variants of: B1
Assay: self-cleavage, relative activity (ratio to wild type); higher = more cleavage; co-transcriptional

Row | Variant | self-cleavage
1 | G42A A61G | 0.201
2 | G40A U60G | 0.214
3 | G40A U60A | 0.271
4 | G42U U53C | 0.233
5 | G42U U53A | 0.298
6 | G42C A61U | 0.136
7 | G42C A61G | 0.178
8 | G40A C65U | 0.435
9 | G40A C65A | 0.315
10 | G40A A64U | 0.139
11 | G40A A64C | 0.16
12 | A41G G51A | 1.09
13 | A41G G51U | 0.552
14 | G42A A59G | 0.264
15 | G42A A59U | 0.101
16 | G42A C46A | 0.152
17 | A41C U67G | 0.124
18 | A41G U55C | 0.23
19 | A43G G56A | 0.0841
20 | A41C U53C | 0.822
21 | G40A A45U | 0.149

Row | Variant | self-cleavage
22 | A43C U70C | 0.164
23 | A43C U70G | 0.12
24 | G42C U53A | 0.332
25 | A41U C65U | 1.19
26 | A41U C65A | 0.756
27 | A41G A61G | 0.179
28 | A41C A43C | 0.0734
29 | G42A G69C | 0.118
30 | G40A A71U | 0.198
31 | G40A A71C | 0.574
32 | A41C A61U | 0.234
33 | A43C U58G | 0.262
34 | A43C U58C | 0.148
35 | A41G G42C | 0.0762
36 | A41G G42A | 0.282
37 | G40A A47G | 0.138
38 | A39U U63C | 0.144
39 | G40U G57U | 0.153
40 | G40U G57C | 0.124
41 | A43C G68C | 0
42 | G42C C48A | 0.134

Row | Variant | self-cleavage
43 | G42A U52C | 0.208
44 | G42A U52G | 0.0884
45 | A43C G57C | 0.204
46 | A43C G57A | 0.137
47 | A43C U53G | 0.103
48 | A41G U67C | 0.483
49 | A41G U67G | 0.5
50 | G40C G54U | 0.0743
51 | G40C G54A | 0.124
52 | G42C U70A | 0.222
53 | G42C U70C | 0.233
54 | G40C G56A | 0.107
55 | A41C G57U | 0.502
56 | A41G U60C | 1.23
57 | A41C G42U | 0.231
58 | A41C A59U | 0.173
59 | A41C C66A | 0.214
60 | A41C C66U | 0.614
61 | A41C C66G | 0.292
62 | A41G U70C | 0.981
63 | A41G U70G | 0.677

Row | Variant | self-cleavage
64 | A43G C48A | 0.174
65 | A43G C48U | 0.123
66 | G40C G42C | 0.107
67 | G40U U53G | 0.151
68 | G40U U53C | 0.344
69 | G40C A71U | 0.09
70 | A43G G54C | 0.168
71 | A43G G54U | 0.156
72 | G42C U58A | 0.218
73 | G42C U63C | 0.148
74 | G40U A59G | 0.115
75 | G40U A59C | 0.0879
76 | G40C G69A | 0.111
77 | G40C G69U | 0.128
78 | G40C A59G | 0.0907
79 | G40C A59C | 0.0991
80 | A41U C50U | 0.781
81 | G40A G54U | 0.183
82 | G40C U55A | 0.107
83 | A41C U62G | 0
84 | A41C U62A | 0.325
